Experimental data: IntAct's records for PubMed 29039417

B1: BBSome complex member BBS4 (Homo sapiens), Q96RK4 (parent)
chain: MAEERVATRTQFPVSTESQKPRQKKAPEFPILEKQNWLIHLHYIRKDYEACKAVIKEQLQETQGLCEYAIYVQALIFRLEGNIQESLELFQTCAVLSPQSADNLKQVARSLFLLGKHKAAIEVYNEAAKLNQKDWEISHNLGVCYIYLKQFNKAQDQLHNALNLNRHDLTYIMLGKIHLLEGDLDKAIEVYKKAVEFSPENTELLTTLGLLYLQLGIYQKAFEHLGNALTYDPTNYKAILAAGSMMQTHGDFDVALTKYRVVACAVPESPPLWNNIGMCFFGKKKYVAAISCLKRANYLAPFDWKILYNLGLVHLTMQQYASAFHFLSAAINFQPKMGELYMLLAVALTNLEDIENAKRAYAEAVHLDKCNPLVNLNYAVLLYNQGEKKNALAQYQEMEKKVSLLKDNSSLEFDSEMVEMAQKLGAALQVGEALVWTKPVKDPKSKHQTTSTSKPASFQQPLGSNQALGQAMSSAAAYRTLPSGAGGTSQFTKPPSLPLEPEPAVESSPTETSEQIREK
partner: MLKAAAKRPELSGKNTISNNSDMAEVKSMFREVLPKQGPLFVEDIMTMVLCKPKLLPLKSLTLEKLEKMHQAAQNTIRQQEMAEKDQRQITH

Variants of: B1
Details: with bbip1_human BBIP1, A8MTZ0

Row | Variant | effect of a mutation on the interaction
1 | A476E | with no effect
2 | A476K | with no effect
3 | A485E | with no effect
4 | A485K | with no effect
5 | S489A | with no effect
6 | S489E | with no effect
7 | S489K | with no effect
8 | G486K | with no effect
9 | G486E | with no effect
10 | G486A | with no effect
11 | S474A | with no effect
12 | S474E | with no effect
13 | S474K | with no effect
14 | A467K | with no effect
15 | A467E | with no effect
16 | L481A | with no effect
17 | L481K | with no effect
18 | L481E | with no effect
19 | N465E | with no effect
20 | N465K | with no effect
21 | N465A | with no effect
22 | Q459K | with no effect
23 | Q459E | with no effect
24 | Q459A | with no effect

Row | Variant | effect of a mutation on the interaction
25 | Q466K | with no effect
26 | Q466A | with no effect
27 | Q466E | with no effect
28 | A475E | with no effect
29 | A475K | with no effect
30 | L462A | with no effect
31 | L462E | with no effect
32 | L462K | with no effect
33 | L468K | with no effect
34 | L468E | with no effect
35 | L468A | with no effect
36 | S464A | with no effect
37 | S464K | with no effect
38 | S464E | with no effect
39 | P461E | with no effect
40 | P461A | with no effect
41 | P461K | with no effect
42 | R479A | with no effect
43 | R479K | with no effect
44 | R479E | with no effect
45 | M472K | with no effect
46 | M472A | with no effect
47 | M472E | with no effect
48 | F491A | with no effect

Row | Variant | effect of a mutation on the interaction
49 | A471E | with no effect
50 | A471K | with no effect
51 | Q460K | with no effect
52 | Q460E | with no effect
53 | Q460A | with no effect
54 | F458K | with no effect
55 | F458A | with no effect
56 | F458E | with no effect
57 | S483E | with no effect
58 | S483A | with no effect
59 | S483K | with no effect
60 | T480K | with no effect
61 | T480A | with no effect
62 | T480E | with no effect
63 | Q470A | with no effect
64 | Q470K | with no effect
65 | Q470E | with no effect
66 | Y478K | with no effect
67 | Y478A | with no effect
68 | Y478E | with no effect
69 | Q490A | with no effect
70 | Q490K | with no effect
71 | Q490E | with no effect
72 | G469K | with no effect

Row | Variant | effect of a mutation on the interaction
73 | G469A | with no effect
74 | G469E | with no effect
75 | G463K | with no effect
76 | G463E | with no effect
77 | G463A | with no effect
78 | T488K | with no effect
79 | T488A | with no effect
80 | T488E | with no effect
81 | G487E | with no effect
82 | G487K | with no effect
83 | G487A | with no effect
84 | P482A | with no effect
85 | P482K | with no effect
86 | P482E | with no effect
87 | S473K | with no effect
88 | S473E | with no effect
89 | S473A | with no effect
90 | G484K | with no effect
91 | G484A | with no effect
92 | G484E | with no effect
93 | A477E | with no effect
94 | A477K | with no effect
